Data published in PMC13244463, “Intermolecular β‑sheet Formation Guides the Interaction between Ubiquitin-like Modifier FAT10 and Adapter Protein NUB1L” (Journal of the American Chemical Society, 2026).

Molecular target: T1, Human NUB1L (amino acids 2-615) (human, UniProt Q9Y5A7-1 2-615)
T1 construct: NUB1L, the long isoform of NEDD8-ultimate buster 1, human, amino acids 2-615 (615 residues in the long isoform); Details are in the Supporting Information; also called NEDD8-ultimate buster 1 long isoform; natural abundance NUB1L; source: E. coli BL21-CodonPlus(DE3)-RIPL, LB medium, purified (same steps as for N-FAT10-C0)
T1 sequence (looked up): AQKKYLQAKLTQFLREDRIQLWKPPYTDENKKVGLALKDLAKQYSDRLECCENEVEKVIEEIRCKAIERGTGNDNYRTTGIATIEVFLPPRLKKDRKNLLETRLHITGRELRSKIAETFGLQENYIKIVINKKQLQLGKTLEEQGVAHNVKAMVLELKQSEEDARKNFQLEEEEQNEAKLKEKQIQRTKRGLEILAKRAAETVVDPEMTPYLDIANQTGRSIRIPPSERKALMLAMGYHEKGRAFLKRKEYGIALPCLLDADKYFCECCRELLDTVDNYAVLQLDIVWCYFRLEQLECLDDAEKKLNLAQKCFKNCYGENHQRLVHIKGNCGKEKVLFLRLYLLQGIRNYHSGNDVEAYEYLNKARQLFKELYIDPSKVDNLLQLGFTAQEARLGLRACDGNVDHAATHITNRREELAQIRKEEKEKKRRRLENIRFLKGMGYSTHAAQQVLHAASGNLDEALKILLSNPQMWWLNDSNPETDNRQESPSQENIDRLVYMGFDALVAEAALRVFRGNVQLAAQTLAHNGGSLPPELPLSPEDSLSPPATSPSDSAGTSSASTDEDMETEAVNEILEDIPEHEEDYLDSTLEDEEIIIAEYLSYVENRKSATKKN
Assay: SEC; size-exclusion chromatography (with SDS-PAGE) of N-FAT10-C0 with NUB1L, Figure S1; conditions are in the Supporting Information
Settings: both partners purified

binding result: binds
B1: Cys-free N-domain of human FAT10 (amino acids 5-86; C7T, C9T) (domain or fragment)
chain: GASTLTVHVRSEEWDLMTFDANPYDSVKKIKEHVRSKTKVPVQDQVLLLGSKILKPRRSLSSYGIDKEKTIHLTLKVVKPSDE
notes: additional glycine residue at the N-terminus that remains from the TEV protease cleavage site; FAT10 (human leukocyte antigen F adjacent transcript 10), human, N-domain, amino acids 5-86, with C7T and C9T; 83 residues together with the extra glycine; Uniformly 13C,15N labelled (M9 medium with U-13C6-D-glucose and 15N-ammonium chloride) for MAS NMR; Detailed protocols are in the Supporting …
